Reference: patent US20060026702A1, “Phosphoinositide 3-kinase mediated inhibition of GPCRs” (DUKE UNIVERSITY, priority 2002, published 2006)

Molecular target: endogenous βARK1 of HEK 293 cells (UniProt P25098)
Assay: cell-based or functional assay

endogenous βARK1 of HEK 293 cells, sequence (P25098 whole entry): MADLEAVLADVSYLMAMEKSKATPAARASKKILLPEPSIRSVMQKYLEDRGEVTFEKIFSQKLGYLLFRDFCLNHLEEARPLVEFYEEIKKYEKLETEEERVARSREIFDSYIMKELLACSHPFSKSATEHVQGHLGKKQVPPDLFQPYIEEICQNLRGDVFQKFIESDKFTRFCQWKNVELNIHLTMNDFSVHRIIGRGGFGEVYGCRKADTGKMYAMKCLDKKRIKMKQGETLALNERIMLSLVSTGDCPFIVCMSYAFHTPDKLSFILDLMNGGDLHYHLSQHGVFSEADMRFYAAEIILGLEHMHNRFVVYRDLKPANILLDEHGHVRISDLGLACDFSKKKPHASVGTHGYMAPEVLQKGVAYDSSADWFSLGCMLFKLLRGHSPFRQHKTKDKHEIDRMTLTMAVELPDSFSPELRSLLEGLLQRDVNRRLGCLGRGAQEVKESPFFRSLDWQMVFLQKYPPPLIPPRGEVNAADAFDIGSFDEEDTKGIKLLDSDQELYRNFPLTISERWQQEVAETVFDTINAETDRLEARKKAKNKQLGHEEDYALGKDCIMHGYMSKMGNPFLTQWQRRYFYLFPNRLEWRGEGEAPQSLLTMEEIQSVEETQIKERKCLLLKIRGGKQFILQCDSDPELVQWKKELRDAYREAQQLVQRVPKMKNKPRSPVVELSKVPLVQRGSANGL

**Q.** With “endogenous PI3K of HEK 293 cells (enzyme)” as the substance, how does the rate of agonist-dependent β2AR sequestration (125I-Cyanopindolol binding) with HEAT protein overexpressed read?
**A.** > 60%
